{
  "source": "paper PMC5694663",
  "biological_target": "JunB-6×His",
  "assay": "co-purification",
  "data": [
    {"binder": "mCherry-BATF1 (natural protein) MPHSSDSSDSSFSRSPPPGKQDSSDDVRKVQRREKNRIAAQKSRQRQTQKADTLHLESEDLEKQNAALRKEIKQLTEELKYFTSVLSSHEPLCSVLASGTPSPPEVVYSAHAFHQPHISSPRFQP", "values": [
      {"measurement": "stoichiometry N", "value": 1}
    ]}
  ]
}
